{"source": "the nanobody polyreactivity screen of Harvey et al. (2022)"}
{"assay": "yeast display, Sf9 membrane polyspecificity reagent, FACS + sequencing; frameworks hold sequencing errors", "how_it_was_run": "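In a synthetic yeast display library (Saccharomyces cerevisiae BJ5465), nanobody expression was induced with galactose for 36–48 hours. FACS gates were set low and high (top ~1%) using anti-HA fluorescence for expression and streptavidin fluorescence for binding of the Sf9 membrane reagent. Each polyreactivity label is drawn from the gate of origin.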"}
{"sequence": "QVQLVESGGGLVQAGGSLRLSCAASGSISVWYVMGWYRQAPGKERELVAAITRSGGSTFYADSVKGRLTISRDNAKNTVYLQMNSLKPEDTAVYYCAADVGVAWGYGYWGQGTQVTVSS", "polyreactivity (PSR sort gate)": "low polyreactivity"}
{"sequence": "QVQLVESGGGLVQAGGSLRLSCAASGFTIISYTMGWYRQAPGKDRELVAAIRGGGRTYYADSVKGRFTISRDNAKNTVYLQMNSLKPEDTAVYYCAARLRYGGHYDYWGQGTQVTVSS", "polyreactivity (PSR sort gate)": "high polyreactivity"}
{"sequence": "QVQLVESGGGLVQAGGSLRLSCAASGYIFGQYAMGWYRQAPGKERELVADITRGGDTYYADSVKGRFTISRDNAKNTVYLQMNSLKPEDTAVYYCAAEQGRTSYRYYYWGQGTQVTVSS", "polyreactivity (PSR sort gate)": "high polyreactivity"}
{"sequence": "QVQLVESGGGLVQAGGSLRLSCAASGITFNPYGMGWYRPAPGKERELVADITCGGITDYADCVKGRFTIARDNAKNTVYLHKNSLKPEETAVYYCATGDLFVYYWCYVVRLYDYWGQGTQVTVSS", "polyreactivity (PSR sort gate)": "low polyreactivity"}
{"sequence": "QVQLVESGGGLVQAGGSLRLSCAASGSTFNEYVMGWYRHAPGKERELVAAITGGGGRTYYADSVKGRFTISRDNAKNTVYLQMNSLKPEDTAVYYCAKRYLFVTYWGFFRYDYWGQGTQVTVSS", "polyreactivity (PSR sort gate)": "low polyreactivity"}
{"sequence": "QVQLQESGGGLVQAGGSLRLSCAASGNFFDADIMGWYRQAPGKERELVASITDGGSTNYAVSVKGRFTISRGNTKNTVYLLMNCLKPEDTSVYYCAAIAYPDIPTYFDYNSDYFYWGQGTQVTVSS", "polyreactivity (PSR sort gate)": "high polyreactivity"}
{"sequence": "QLQLVESGGGLVQAGGSLRLSCAASGRTFSIYAMGWSRQATGKERELVAAIRWSGGSTYYADSVKGRFTISRDNAKNSVYLQMNSLKPEDTAVYYCATRSRGLKFDYWGQGTLVTVSS", "polyreactivity (PSR sort gate)": "high polyreactivity"}
{"sequence": "QVQLVESGGGLVQAGGSLRLSCAASGRIFYTYAMGWYRQAPGKASELVAAITYRGGSTYYADSVKGRFTISRDIAKNTVYLQMNSLKPADTAVYYCAARPGRGPDSRWRYKYDYWGQGTQVTVSS", "polyreactivity (PSR sort gate)": "high polyreactivity"}
{"sequence": "QVQLVESRGCLVQAGGSLRLSCAASGRIFYYYDMGWYRQAPGKERELVAAITYSDSSTYADSVKRRFTISRDNAKNTVYLQMNSLKPEDTAVYYCAADYVYPGVRLEMDYWGQGTQVTVSS", "polyreactivity (PSR sort gate)": "low polyreactivity"}
{"sequence": "QVQLVESGGGLVQAGGSLRLSCAASGSNFIWYVMGWYRQAPGKEREFVAAINWRGTSTYYADSVKGRFTISRDNAKNTVYLQMNSLKPEDTAVYYCAARVTYRGRAYDYWGQGTQVTVSS", "polyreactivity (PSR sort gate)": "high polyreactivity"}
{"sequence": "QVQLEESGGGLVQAGGSLRLSCAATASIFDYYAMGWYRQAPGKERELVAAISGTGGSTYYADSVMGRFTISRDNAKNTVYLQMNSLKPEDTAVYYCNAARVIRTALRNDGTFDYWGQGTQVTVSS", "polyreactivity (PSR sort gate)": "high polyreactivity"}
{"sequence": "QVQLVESGGGLVQAGGSLRLSCAASGRTFYPYAMGWNRQAPGKERELVAAIRSSGGTTYYADSVKGRFTISRDNAKNTVYLQMNSLKPEDTAFYYCAAYVDRQGGYYWGQGTQVTVSS", "polyreactivity (PSR sort gate)": "high polyreactivity"}
{"sequence": "QVQLVESGGGLVQAGGSLRLSCAASGSIFRYYAMGWYRQAPGKERELVATITSGGSTSYADSVKGRFTISRDNAKNTVYLQMNSLKPEDTAVYYCAKRSRHNKYYYWGQGTQVTVSS", "polyreactivity (PSR sort gate)": "high polyreactivity"}
{"sequence": "QVQLVESGGGLVQAGGSLRLSCAASGSIFGSYAMGWYRQAPGKERELVAAITYSGTSTYYADSVKGRFTISRDNAKNTVYLQMNSLKPEDTAVYYCNAVSRHRSKFDYWGQGTQVTVSS", "polyreactivity (PSR sort gate)": "high polyreactivity"}
{"sequence": "QVQLVESGGGLVQAGGSLRLSCAASGGTFYRNAMGWSRQAPGKERELVAAINYRGDRTYYADSVKGRFTISRDNAKNTVYLQMNSLKPEDTAVYYCAADSYPAYLGFVGFDYWGQGTQVTVSS", "polyreactivity (PSR sort gate)": "low polyreactivity"}
{"sequence": "QVQLVESGGGLVQAGGSLRLSCAASGSNIGWYAMGSYRQAPGKERELVAAISSSDGSTYYADSVKGRFTISRDNAKNTVYLQMNSLKPEDTAVYYCATDSDFTYAQYDYWGQGTQVTVSS", "polyreactivity (PSR sort gate)": "low polyreactivity"}
{"sequence": "QVQLVESGGGLVQAGGSLRLSCAASGRIFNPYAMGWYRQAPGKERELVAAISWSGSTTYYADSVKGRFTISRDNAKNTVYLQMNSLKPEDTAVYYCAAEVVFFGWNYDYWGQGTQVTVSS", "polyreactivity (PSR sort gate)": "high polyreactivity"}
{"sequence": "QVQLVESGGGLVQAGGSLRLSCAASGNIFDEYTMGWYRQAPGKERELVAGISWSGSHTYYADSVKGRFTISRDNAKNTVYLQMNSLKPEDTAVYYCIADSYPDYTGPGLDWYDYWGQGTQVTVSS", "polyreactivity (PSR sort gate)": "low polyreactivity"}
{"sequence": "HVQLVESGGGLVQAGGSLRLSCAASGSTFGYNARGWYRQAPGKERELVAVITDSGGSTKYADSVKGRFTISRDNAKKTVYLQMNSLKPEDTAVYYCAKRSSQTRRAYDYWGQGTQVTVSS", "polyreactivity (PSR sort gate)": "low polyreactivity"}
{"sequence": "QVQLVESGGGLVQAGGSLLLSCAASGRIFFTNAMGWYRQAPRKERELVAAISKSGARTYYADSVKGRFTISRDKAKNTVYLQMNSLKPEDTAVYYCATDYAFPQYDDWGQGTQVTVSS", "polyreactivity (PSR sort gate)": "high polyreactivity"}
{"sequence": "QVQLVESGGGLVQAGGSLRLSCAASGSISSNAMGWYRQAPGKERELVAAISGSVGSTYYADSVKGRFTISRDNAKNTVYLQMNSLKREDTAVYYCAADAEAGRYVYGASSELGYDYWGQGTQVTVSS", "polyreactivity (PSR sort gate)": "low polyreactivity"}
{"sequence": "QVQLVESGGGLVQAGGSLRLICDASGIIFFPYAMGWYRQAPGKEREFVAAIRATGDNTYYADSVKGRFTISRDNAKNTVYLQMNSLKPEDTAVYYCAADRGTYQVDYWGQGTQVTVSS", "polyreactivity (PSR sort gate)": "low polyreactivity"}
{"sequence": "QVQLVESGGCLVQAGGSLRLSCAASGFIFAYNAMGWYRQAPGKERELVAAISFSGGSTYYADSVKGRFTISRDTANNTVYLQMNSLKPEDTAVYYCAAVRYYWGQGTQVTVSS", "polyreactivity (PSR sort gate)": "high polyreactivity"}
{"sequence": "QVQLVESGGVLVQAGGSLRLSCAASGRTFFRYTMGWYRPAPGKERELVAAISRSDGSTYYADSVKGRFTISRDNAKNTVYLQMNSLKPEDTAVYYCAKSLPSGYYYWGQGTQVTVSS", "polyreactivity (PSR sort gate)": "low polyreactivity"}
{"sequence": "QVQHVESGGGLVQAGGSLRLSCAASGRTFSANAMGWDRQAPGKEMELVATISSGGRTNYADSVKGRFTISRDNAKNTVYLQMNSLKPEDTAVYYCAKRGPYKRWYGRYDYWGQGTQVTVSS", "polyreactivity (PSR sort gate)": "low polyreactivity"}
{"sequence": "QVQLVESGGGLVQAGGSLRLSCAASGRTFWYNAMGWYRQAPGKEREFVAAIRWTTGSTYYADSVKGRFTISRDNAKNTVYLQMNSLKPEDTAVYYCAASLYPVRRDYWGQGTQVTVSS", "polyreactivity (PSR sort gate)": "high polyreactivity"}
{"sequence": "QVQLVESGGGLVQAGGSLRLSCAASGRIFYLYAMGWYRQAPGKERELVATISGSGGSTYYADSVKGRFTISRDNAKNTVYLLMISLKPEDTAVYYCAAVSVSSWYDYWGQGTQVSVSS", "polyreactivity (PSR sort gate)": "low polyreactivity"}
{"sequence": "QVQLVESWGGLVQSGGSLRLSCAASGFTFGHNAMGWYIQAPGKERELVAAIDTSGGSTYYADSVKGRFTISRDNEKNTVYLKMNSLKPEDTAVYYCAAFSASYGGYDYWGQGTQVTVSS", "polyreactivity (PSR sort gate)": "high polyreactivity"}
{"sequence": "QVQLVESGGGLVQAGGSLRLSCAASGRTFRSNAMGWYRQAPGKERELVAAITASGGNTYYADSVKGRFTISRDNAKNTVYLQMNSLKPEDTAVYYCAAVSRYNYGTNPYYYWGQGTQVNVSS", "polyreactivity (PSR sort gate)": "high polyreactivity"}
{"sequence": "QVQLVESGGCLVQAGGILRLSCAASGSTFWIYAMGWYRQAPGKERELVAAITLRSGSTYYADSVKGRYTISRDNAKNTVFLQMNSLKPEDTAVYYCATDSWGVDRPNYNYWGQGTQVTVSS", "polyreactivity (PSR sort gate)": "low polyreactivity"}
{"sequence": "QVQLVESGGGLVQAGGSLRLSCAASGRIFTRNTMGWYRQAPGKERELVAAITSRGGSTYYADSVKGRFTISRDNAKITVYLQMNSLKPEETAVYYCAADIPRYYYYWGQGTQVTVSS", "polyreactivity (PSR sort gate)": "high polyreactivity"}
{"sequence": "QVHLVESCGGLVQARGSLRLSCAASGSTIDYNSMGWYRLAPWKEREMVATITSSVGSTYYEDSVKGRYTISRDNAKNTVDLHMNCVKPEDTAVYYCAADYDYPDYYAPSWRRYTYWGQGTQVTVSS", "polyreactivity (PSR sort gate)": "low polyreactivity"}
{"sequence": "QVQLVESGGGLVQAGGSLRLSCAASGSTFYKYAMGWYRQATGKERELVASTYADSVKGRFTISRDNAKNTVYLQMNSLKPEDTAVYYCAKDTASGPYDYWGQGTQVTVSS", "polyreactivity (PSR sort gate)": "low polyreactivity"}
{"sequence": "QVQLVESGGGLVQAGGSLRLSCAASGFTFGYYVMGWYRQAPGKERELVAAITSGGSTYYADSVKGRFTISRDNAKNTVYLQMNSLKREDTAVYYCNKYGVVLPGFDYWGQGTQVTVSS", "polyreactivity (PSR sort gate)": "high polyreactivity"}
{"sequence": "QVQLVESGGGLVQAGGSLRLSCAASGMIFKYYVMGWYRQAPGKERELVAAIRWSGGITSYADSVKGRFTISRDNAKNTVYLQMNSLKPEDTAVYYCAVAHSRLRTAYTFSVQRYDYWGQGTQVTVSS", "polyreactivity (PSR sort gate)": "low polyreactivity"}
{"sequence": "QVQLVESGGGLVQAGGSLRLSCAASGRIFPRYAMGWYRQAPGKERELVARITRRGGITYYADSVKGRFTISRDNAKNTVYLQMNSLTPEDTAVYYCNVDYYRGGDFSYGYDYWGQGTQVTVSS", "polyreactivity (PSR sort gate)": "high polyreactivity"}
{"sequence": "QVQLVESGGGLVQAGGSLRLSCAASGRTFSYYAMGWYRQAPGKERELVAAISWSGGSTYYADSVKGRFTISRDNAKNTVYLQMNSLKPEDTAVYYCNAPGYVWKGYDYWGQGTQVTVSS", "polyreactivity (PSR sort gate)": "high polyreactivity"}
{"sequence": "QVQLVESGGGLVQAGGSLRLSCAASGRTFCYAMGWSRQAPGKERELVAAISYRGGGTYYADSVTGRFTISRDNAKYTVYLQMTSLKPEDTEVYFCNARQYRPWYPPYGYDYWGQGTQVTVSS", "polyreactivity (PSR sort gate)": "low polyreactivity"}
{"sequence": "QVQLVESGGGLVQAGGSLRLSCAASGITFRYYAMGWYRPAPGKERELVASITSGGVNTYYADSVKGRFTISRDNAKNTVYLQMNSLKPEDTAVYYCATTYVGETLTGPGDYWGQGTQVTVSS", "polyreactivity (PSR sort gate)": "low polyreactivity"}
{"sequence": "QVQLVESGGGLVQAGGSLRLSCAASGRIFPVYAMGWYRQAPGKERELVAAISRRGGSTYYADSVKGRFTISRDNAKNTVYLQMNSLKPEDTAVYYCAATAYYYWWWYGGDMDYWGQGTQVTLSS", "polyreactivity (PSR sort gate)": "high polyreactivity"}
{"sequence": "QVQLVESGGGLVQAGGSLRISCDASGSIISRNAMGWYRQAPGKEREFVAAITRSGGSTSYADSVKGRFTISRDNAKNTVYLQMNSLKPEDTAVYYCAASYARSATAYYKYYDWGQGTQVTVSS", "polyreactivity (PSR sort gate)": "high polyreactivity"}
{"sequence": "QVQLVESGGGLVQAGGSLRLSCAASGSIFPDYTMGWYRQAPGKERELVAAITRSGDSTYYADSVKGRFTISRDNAKNTVYLQMNSLKPEDTAVYYCARDAFSVSDFSYASIEYDYWGQGTQVTVSS", "polyreactivity (PSR sort gate)": "low polyreactivity"}
{"sequence": "QVQLVESGGGLVQAGGSLRLSWAASGSIFKYYAMGWYRQAPGKDRELVADISRSGGRTYYADSVKGRFTISRDNAKNTVFLQMNSLKPEDTAVYYCAKRYSRGSQDDYWGQGTQVTVSS", "polyreactivity (PSR sort gate)": "high polyreactivity"}
